Experimental data published in patent US20180148493A1.

Biological target: HLA-A2 (Homo sapiens)

B1: … (peptide)
peptide: AIIRILQQL
modifications: not checked
- IC50: 385 nM
